The test addresses dynamin 2-K562E (baculovirus) (rat). As to the kind of experiment: not stated; polymerization of recombinant (baculovirus) dynamin 2 with or without Bis-T-23; method in Supplementary Figures S2E, F.

As for dynamin 2-K562E (baculovirus) (enzyme), the fold increase of polymerization with Bis-T-23 against without Bis-T-23 is 3.5 times.

For the origin of these results see publication PMC9127447.
